Source: patent publication US6780974B2, “Synthetic DNA encoding an orange seapen-derived green fluorescent protein with codon preference of mammalian expression systems and biosensors” (Cellomics, Inc., priority 2001, dated 2004)

B1: hPtFP: full length humanized Ptilosarcus gurneyi green fluorescent protein, 239 amino acid residues, valine added at position 2 (protein)
chain: MVNRNVLKNTGLKEIMSAKASVEGIVNNHVFSMEGFGKGNVLFGNQLMQIRVTKGGPLPFAFDIVSIAFQYGNRTFTKYPDDIADYFVQSFPAGFFYERNLRFEDGAIVDIRSDISLEDDKFHYKVEYRGNGFPSNGPVMQKAILGMEPSFEVVYMNSGVLVGEVDLVYKLESGNYYSCHMKTFYRSKGGVKEFPEYHFIHHRLEKTYVEEGSFVEQHETAIAQLTTIGKPLGSLHEWV
B2: hPtFP DNA: synthetic DNA encoding hPtFP with codons favored for mammalian expression systems (nucleic acid)
DNA: AAGCTTGCCACCATGGTGAACCGGAACGTGCTGAAGAACACCGGCCTGAAGGAGATCATGAGCGCCAAGGCCAGCGTGGAGGGCATCGTGAACAACCACGTGTTCAGCATGGAGGGCTTCGGCAAGGGCAACGTGCTGTTCGGCAACCAGCTGATGCAGATCCGGGTGACCAAGGGCGGCCCTCTGCCCTTCGCCTTCGACATCGTGAGCATCGCCTTCCAGTACGGCAACCGGACCTTCACCAAGTATCCCGACGACATCGCCGACTACTTCGTGCAGAGCTTCCCTGCCGGCTTCTTCTACGAGCGGAACCTGCGGTTCGAGGACGGCGCCATCGTGGACATCCGGAGCGACATCAGCCTGGAGGACGACAAGTTCCACTACAAGGTGGAGTACCGCGGCAACGGCTTCCCTAGCAACGGCCCTGTGATGCAGAAGGCCATCCTGGGCATGGAGCCCAGCTTCGAGGTGGTGTACATGAACAGCGGCGTGCTGGTGGGCGAGGTGGACCTGGTGTACAAGCTGGAGAGCGGCAACTACTACAGCTGCCACATGAAGACCTTCTACCGGAGCAAGGGCGGCGTGAAGGAGTTCCCTGAGTACCTATTCATCCACCACCGGCTGGAGAAGAACTACGTGGAGGAGGGCAGCTTCGTGGAGCAGCACGAGACCGCCATCGCCCAGCTGACCACCATCGGCAAGCCTCTGGGCAGCCTGCACGAGTGGGTGTAAAGCGGCCGCAAGCTTGCCACCATGGTGAACCGGAACGTGCTGAAGAACACCGGCCTGAAGGAGATCATGAGCGCCAAGGCCAGCGTGGAGGGCATCGTGAACAACCACGTGTTCAGCATGGAGGGCTTCGGCAAGGGCAACGTGCTGTTCGGCAACCAGCTGATGCAGATCCGGGTGACCAAGGGCGGCCCTCTGCCCTTCGCCTTCGACATCGTGAGCATCGCCTTCCAGTACGGCAACCGGACCTTCACCAAGTATCCCGACGACATCGCCGACTACTTCGTGCAGAGCTTCCCTGCCGGCTTCTTCTACGAGCGGAACCTGCGGTTCGAGGACGGCGCCATCGTGGACATCCGGAGCGACATCAGCCTGGAGGACGACAAGTTCCACTACAAGGTGGAGTACCGCGGCAACGGCTTCCCTAGCAACGGCCCTGTGATGCAGAAGGCCATCCTGGGCATGGAGCCCAGCTTCGAGGTGGTGTACATGAACAGCGGCGTGCTGGTGGGCGAGGTGGACCTGGTGTACAAGCTGGAGAGCGGCAACTACTACAGCTGCCACATGAAGACCTTCTACCGGAGCAAGGGCGGCGTGAAGGAGTTCCCTGAGTACCTATTCATCCACCACCGGCTGGAGAAGAACTACGTGGAGGAGGGCAGCTTCGTGGAGCAGCACGAGACCGCCATCGCCCAGCTGACCACCATCGGCAAGCCTCTGGGCAGCCTGCACGAGTGGGTGTAAAGCGGCCGC

Columns and labels:
Type in all cases: cell-based
[1] = tested on: HEK293 cells; assay: Percentage of hPtFP-positive cells in stably transfected HEK293 mixed population during passage (growth / toxicity); details: for toxicity to host cells: stably transfected mammalian host cells (HEK293)
Protocol: The cells were co-transfected with the hPtFP construct and pSV2-neo (Cat #37149, ATCC, Manassas, Va., USA) with FUGENE 6 transfection reagent (Roche Molecular Biochemicals, Indianapolis, Ind., USA) following the manufacturer's instructions. Two days after transfection, cells were treated with 0.4 mg/ml (milligram/milliliter) G418 in normal growth medium. After treating with G418 for two weeks, drug resistant cells were isolated or pooled. A mixture of stably transfected HEK293 mixed population (in which about 30% of the cells expressing hPtFP of this invention) were plated out in 96 cell micro plates. After 2, 4, or 6 days incubation, the cells were fixed with 3.7% formaldehyde for 20 minutes at room temperature (25° Centigrade). The percentage of positive cells was quantitated with ARRAYSCAN II instrument, as described herein.
To compare the growth rates of cells expressing or not expressing hPtFP, a mixture of stably transfected HEK293 mixed population (in which about 30% of the cells expressing hPtFP of this invention) were plated out in 96-well micro plates. After 2, 4, or 6 days incubation, the cells were fixed with 3.7% (percent) formaldehyde for twenty minutes at room temperature (25 degrees Centigrade). The percentage of positive cells was quantitated with ARRAYSCAN II instrument, as described herein.

[2] = tested on: COS1 cells; assay: In situ absorption and emission spectra of live COS1 cells expressing hPtFP; details: in COS-1 cells
Protocol: Forty-eight hours after initial transfection with the synthetic green fluorescent protein DNA of the present invention, COS1 cells were trypsinized and were kept in suspension. The absorption and emission spectra of the live cells expressing the hPtFP of the present invention were then measured, as shown in FIG. 2.

[3] = tested on: COS1 cells; assay: Fluorescence of COS1 cells transiently transfected with humanized versus wild type PtFP DNA (ARRAYSCAN II); details: transient transfection
Excerpt: The difference at the nucleotide level (versus codon level) is that the hPtFP open reading frame (including the stop codon) contains 720 nucleotides, whereas the PtFP open reading frame (including the stop codon) contains 717 nucleotides. It will be appreciated by those skilled in the art, that without counting the extra valine introduced into hPtFP of the present invention, there are 166 nucleotide differences between the 717 nucleotides compared, or 23.15 percent difference (or 76.85% identity). If the stop codon is excluded in this comparison, there are 165 nucleotide differences in the 714 nucleotides compared, or 23.10 percent difference (or 76.9% identity). […]
To compare the expression of wild type Ptilosarcus gurneyi fluorescent protein DNA with humanized Ptilosarcus gurneyi green fluorescent protein synthetic DNA as described above, an expression vector for the wild type Ptilosarcus gurneyi DNA was constructed by cloning the wild type PtFP into the expression vector M2, and thus, these two expression vectors under comparison differed only in their coding regions. […] The purified DNA preps were quantitated by reading the optic absorption at 260 nm (nanometers) with a HP8453 UV—visible spectrophotometer (Agilent Technologies, Palo Alto, Calif., USA) and calculated based on 1 O.D.=[…] DNA. […]

Molecule | percentage of positive cells during cell passage ([1]; HEK293 mixed population, about 30% expressing hPtFP, 2, 4 or 6 days incubation, no selection (FIG. 5)) | toxicity to host cells [1] | absorption and emission spectra compared with wildtype Ptilosarcus gurneyi [2] | number and brightness of expressing cells compared with wild type PtFP DNA (visual observation) [3] | fluorescent signal compared with wild type Ptilosarcus gurneyi green fluorescent protein ([3]; identical amount of DNA, forty hours post-transfection, intensity in nuclear area (FIG. 3))
B1 | did not change | not toxic to the cells | unchanged |  | 
B2 |  | does not have toxic effects on the host cells |  | more hPtFP expressing cells and brighter cells than the wild type | stronger fluorescent signals than the wild type
